Experiments:
[1] = biological target: cynomolgus Vδ1 antigen DV1/GV77, recombinant heterodimer (食蟹猴 (cynomolgus)); assay: SPR (Reichert 4SPR), antibody on protein A chip
[2] = biological target: L1 (DV1-GV4), soluble human Vδ1Vγ4 γδTCR heterodimer, leucine zipper (LZ) format (human); assay: SPR (Reichert 4SPR), antibody on protein A chip
Sequence of L1 (DV1-GV4), soluble human Vδ1Vγ4 γδTCR heterodimer, leucine zipper (LZ) format (human) (main, as listed by the source): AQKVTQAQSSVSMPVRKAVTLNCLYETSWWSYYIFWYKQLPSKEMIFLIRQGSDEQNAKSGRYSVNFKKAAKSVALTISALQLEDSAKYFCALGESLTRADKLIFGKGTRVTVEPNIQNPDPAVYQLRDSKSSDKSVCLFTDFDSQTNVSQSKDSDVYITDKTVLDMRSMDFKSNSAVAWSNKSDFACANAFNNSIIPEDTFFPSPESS

Sequence of cynomolgus Vδ1 antigen DV1/GV77, recombinant heterodimer (食蟹猴 (cynomolgus)) (main, as listed by the source): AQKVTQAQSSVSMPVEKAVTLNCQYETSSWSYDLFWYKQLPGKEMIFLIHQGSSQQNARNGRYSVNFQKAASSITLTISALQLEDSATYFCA

Row | Binder | fold increase of affinity against ADT1-4 [1] | fold decrease of affinity against ADT1-4-2 [1] | fold decrease of affinity against ADT1-4-2 [2]
1 | ADT1-4(S74L) (antibody, V domains shown) VH: QVQLQQSGPGLVKPSQTLSLTCAISGDSVSSKSAAWNWIRQSPSRGLEWLGRTYYRSKWSTDYAASVKSRITINPDTSKNQLSLQLNSVTPEDTAVYYCARTWSGYVDVWGQGTLVTVSS VL: DIQMTQSPPALSASVGDRVTITCRASQDINDWLAWYQHKPGKAPKLLIYDASSLESGVPLRFSGSGSGTEFTLTISSLQPDDFATYYCQQSYSTPQVTFGQGTRLEIKR | 5 fold |  | 
2 | ADT1-4-2(L74S) (antibody, part only; not given: mutant kappa chain, V domains shown, part only) VH: EVQLQQSGPGLVKPSQTLSLTCAISGDSVSSKSAAWNWIRQSPSRGLEWLGRTYYRSKWSTDYAASVKSRITINPDTSKNQLSLQLNSVTPEDTAVYYCARTWVGYVDRWGQGTLVTVSS |  | 23 fold | 11 fold

From patent CN117999282A
